A protein production outcome set (Wang et al. 2014)

Assay: label from the status in PepcDB records

| Sequence | protein production |
| --- | --- |
| MNTSNRRMGLFYVITGATCWGIGGTVAKKLFQEYQIDVNWLVTTRLLTAGMLLLMLQLFRKDRSQVIEVWKHKASAGQLLIFGLLGMLAVQYTYMASIQHGNAAVATLLQYLSPVIVIIYTLLRKQTVLTKQDIITVVLALVGCFFLLTNGSMSQLSVPAAAVVWGVLSGFAAAFYTLYAVGLLNKFDSLVVVGWAMIIGGFALGFIHPPWQLDFQRLTAEAYAYILFVILFGTMIAFWFFIKSLESLSPKETSLLGSLEPLSAVVTTVVWLKAPFGSFQWIGAICIIGITLILALHKEPSMESEKSILKIRNHANRDI | failed |
| MTLSGGGSASDMSGQTVLTAEDVDIDVVGEGDDGLEEKDSDAGCDSPAGPPELRLDEADEVPPAAPHHGQPQPPHQQPLTLPKEAAGAGAGPGGDVGAPEADGCKGGVGGEEGGASGGGPGAGSGSAGGLAPSKPKNSLVKPPYSYIALITMAILQSPQKKLTLSGICEFISNRFPYYREKFPAWQNSIRHNLSLNDCFVKIPREPGNPGKGNYWTLDPQSEDMFDNGSFLRRRKRFKRHQQEHLREQTALMMQSFGAYSLAAAAGAAGPYGRPYGLHPAAAAGAYSHPAAAAAAAAAAALQYPYALPPVAPVLPPAVPLLPSGELGRKAAAFGSQLGPGLQLQLNSLGAAAAAAGTAGAAGTTASLIKSEPSARPSFSIENIIGGGPAAPGGSAVGAGVAGGTGGSGGGSTAQSFLRPPGTVQSAALMATHQPLSLSRTTATIAPILSVPLSGQFLQPAASAAAAAAAAAQAKWPAQ | failed |
| MTLAPPPMPPSDAPAAESAGATLRLVIADALVVILTFIVMFLGVGQLSAEAGLSAVQTAVMTLLTVAAPAQAAAMQIMTSDGATSGVWVAAMVAVIIVNLRFMVMVASILGRLPQAGFLRGTAAVGLVSASSFAIILPRLMSAPPARPLLYCALVGVSCSISAVIGALLGHQLAASVPALVGAALGAMIPIYFATLIARQGKHKALIANALAGAVLVPLAAPLLGSLSLLIVPLGISALSLMIGKGTPANG | failed |
| MSVDIVHLADSELGKIVALLATSITIVPLFKRLGLGSVLGYLVAGCLIGPSVLGLFQNPQSIVHMAELGVVMFLFIIGLEMHPELLWSMRKAIFGRGFLQVLTCGTLLTFAGIHLIGLTTAVAFVVGAGFTLSSTAIVMQVLEDKGISSAPKGQRIVSTLLFEDLAIVPLLASMTFLAPSTEGATTGINSAAISIAVIGIIILVASSKWIMNPLFRMISKAKVREMMTAAALLVVLGAALLMELSGLSMAMGAFVAGVMLSESSFRHQLEADIEPFRGLLLGLFFMGVGMSLDLKFVFDDLFLLLSLVVILVLGKAISVYVIGLLTLLSHREALMRMSIMSHGGEFAFVLFSAAAAVGILDEDQQATFTAAVIISMLLSPLVVLMVQRIMTRKAKPEAPSMAGIEVAEDLENSVIVIGFGRFSQIVCQILLARGITVTVIDANTDRIRAAARFGFKVYYGDGTRLDVLRASGLAKADCVVLGINDPTRSASIVEQIKHEFPLMPIFARTYDRYSAIQLTKLHVDFQIRETFESALVLSKATMMKLGIDEVEALEVIESVRVLDKERFKEELIYGTSAELIRKYFTPKPLVKPQQPAEALNEYAAEILAETDESQHCQDNLNKKADV | failed |
| MNFDRIFAWPLTSLEVFMNLALPSQYQFLPRFFRLATIAVLSNMMVPLAGLVDTAFLGHLEDIDYLAGVILGSILFDYLYRVLKFLRTSTTALTAQAVGEEDQAEVWVAGLRSALVALLLGLGILALQYPLQKFGFALLTGAPGVEQSGMDYFYGRIWGAPAVLLNFVILGWLLGQERNGLVLLISLVANFSNVGLDYLMINRWGWASAGAGWATASSQYLALALGLISIVVLAQGEKEKGEFKAAIAKLSDWGALRATIALKGNILIRFVILITTYSLFTNISSSFGTEVLAQNGLLLQIALLSQFTIQGVGMTSQTLTGNFKSKGEYQLLLPVLLTAIVTTLLMALGFAAVAIAFPETLFGLLTNHAEINDSVRQYTIWLIPLLESTALAFMLEAYFIGLKASQPLRNGVLFAFFGIYLPCLGLAIWQQSNNLLWFSLVSYMLGLVVYLGWQLLTRFSPQTLALESKQPS | failed |
| MISKHQAVKKIFDQISDKYDLIDTIISLGLDQRWRRSLISNLKLMPGLQCLDCGAGSGKVTELIMESCDSCSVTALDITDSMFNPELTKRCKFVVSPAESLPFSDETFDRVSSAFLTRNLADVDKYFSEVYRVLKPGGIFVNLDIFNPTKPVFSQFFSLYFYRMVPFFGNHATHSRNYSYLANSVKFFYSPFILSKKLESKGFIVEPKDLFFGSVFMHIAQKKLEHHHHHH | not failed |
| MSLIYQIAKEFDFCYGHRVWSQELNPDFSLDPCLSCRHLHGHQGKVIVHLESRELQRGMVTDFAHLNWFKRFIDEVLDHRFIIDIDDPLFPTLLPHFADKSALVWMEEGYARVDFERIKGESSPILELYESFVVVRFVPTSESIASWLLELLRSRIQPLGVKVSSVEFLETPKSRARVYNEGHHHHHH | not failed |
| MSNSRELGDLLEQIRLGEDSQLEFKRVVFENDKIKGPNGDSLSQEIAAFANAIGGRLILGVDDKTRDVVGIPLDRLDAVSIWLENCVHDRIKPEPTIYLRRRLVPDRSGTEHAVLVIDIPRSLYVHLAPGGYFRRQGSSKHELPPNELLRLMQSRQRAGTLGFDEMPVLGCTQANFDAALYGRFLGTTDEPEELRLRKLKLLVPGEPGEEWASVAGVLMATATPSDWLPQAYVQCVHYAGTEKTAQEQLDAQDIQGPLDQQIRQAAAFVLRGMRTAARKNLGRIDVPQFDPEAVFEAIANAGAHRDYSISGAPVQVHLFTDRLEITSPGALPNSQSVESIALRTATRNELLTNLLARCPVEMEGVGRSRVMEKRGEGVPQILNRSERLSGHRPKFELLGENALRVTLYAADPETSPLLNEAGRGSVGLPHAGFARDDG | failed |
| MQTFFQDTMATPLGELLIIADENNHLRAVEWREYEDGLFRSLNRSYRNDPFSLQSRHNPGGLTDSLQRYFDGELAIIDTLPVASVGTEFQQQVWRELRRIPCGEITTYGELATLLGRTGAARAVGMANGSNPISIVVPCHRVIGTGGALTGYAGGIHRKQWLLAHEGYLPHQNSLPL | failed |
| LDVGCNQGGFLRKLYDTTPFKEGVGIDLARLSLEKAETLKGERPLTYYLTDKPQETNRTFDTAVSTSVLYLIEDIPQHAQDLKEVLKPGGVYYASFADLTNNPSRQFMDDTINQYGATPSQNHSLKHIVDSFVDAGFEVAVMKEPVPDVIDLTHYSDFYLSPNDYLQTLYEESFLIKASVKEGIGK | failed |
| LDALRRYHRQTLQELPMGVCSLAKDQEILMWNKAMEELTGIPAQHVVGSRLSTITNPWKDLLQGFINLPDEHLHKQHLALDGQTRWLNLHKAAIDEPLAPGNSGLVLLVEDLTETQTLEDKLVHSERLASIGRLAAGVAHEIGNPITGI | failed |
| MSKDSNKIIEQSREIGISIIMPLYNVEEVILETLESIHEQTFDSYEVLLIDDGSTDKTIEIVTEYIKDKPRFKLYTQPNGGPASARNHGLRLAIGMYICFVDSDDILPNYSLQLMYDGAISTGAKLITGATKRFNSEGEWFIPMHIQYNIAKPGMKTLLKNPELFYSIGPCAKLYHHSLIDGVFFPENIRYGEDQPFVLHALLQAKDIYTVEKVVYYYRLRDGESQSLTQSVDKDPIRILKSVFQIFDYGEEELKKNNTDYEVALKYYQRVSSVELWGALRAAIESKKSENQKIAFTMTLDWLKTKSDDFLNIIPSFRYFLLFSSIERVRYITKDNKENYRNLIGYLWSRQGEEAKIAFRKTYPIPMKAALQIIENNNWRDARKISFKFIVRRKFKAPILIRKISRGIIFRIATLMPRKKNQVILATERSTTLEGNLLAIYDYMFYNNMPQKVYVFLRKNRNWFEMFQLYYTLGRTKTIVLDDYYNKIYGLKFNKNTHVVQSWHATGAFKKFGFSALEGTDANTEEFETRAHSPYTDVLVSSEGIIPEYMEAFRKQANQIKPIGVPRTDVFFDDEYVNYTKEKYMKMYPQLRDKKILLYAPTFRGGPNERFNYSVVLDIAALKKELGDTHILILKFHPVIKNVSFNVEEDDPFILNLTLNNDINDLMLFSDALITDYSSVIFEFSLMNKPIYFFAYDIDDYLDERGFYFDYKATIPGEVFRDTPSLIEAVKSGLYNYDELEIFKKKFVGSLDGNSTKRFVETYIGKANEKVKDILEHHHHHH | not failed |
| YSGSQAPGGIQEIVAMSPELDTYSITKRVKEVLTDNNLGQRLFGESILGLTQGSVSDLLSRPKPWHKLSLKGREPFVRMQLWLNDPHNVEKLRDMKKL | not failed |
| MSGDYRITLEELRYISVFHSITGVTAYRCIVDEENNRLIFLVSEGEAGRAIGRGGRLIKLLREALGKNIEVVEYSSDLERIVKNLFPGVKIESINVRERNGVKQVVIKVSEDDKGAAIGKGGKNVKRARLVLSKLFGVEKVVIR | not failed |
| MSEILRQPSVLLFLTLAVYALAIIVRTRTGNIFCNPVLVSTIVLIAYLKILGIDYAVYHNAAQFIDFRLKPAVVVLAVPLYQNRRKIFNQWLPVIVSQLAGSVTGIVTGMYFAKWLGAEREVVLPLASKSVTNPIAIEITRSIGGIPAITAATVIIAGLVGQIAGYKMLKNTVVMPSSVGMSLGTASHAMGIAASLERSRRMAAYAGMGLTFNGVLTALIAPLLIPVLGF | failed |
| MLFIFLTIAALGLSFWAQFKVKSNFEKYSKVEASSGRTGAETARRILDINGLYDVPVEPVRGTLTDHYDPTRRVVRLSEPVYYGRSISAISVASHEVGHALQHQESYGALVLRHKIFPVVNFASGVAPLLFLGGMLLGSLNLIGLGIILFSAAVFFQLITLPVEFNASSRAKQIIVSEGFIRNNEENGVNKVLSAAALTYVAAALVSLFELLRFVMIFLNGRDEN | failed |
| SDDINQKVAEQLAQKAQSSSLGYDIVESLTVEVGPRLAGSEQDKVAVDWAIAKLQSLGFDRVYKEPVTVPVWRRGIAKASILSPFPQPLVVTALGGSIATPAQGLSATIVRFDTLQDLQNAEAGSLNDKIAFIDAKTERHRDGKGYGQTASGRSRGAVAAAEKGAVGIIIRSIGTDHDRMAHTGMMRYEEGVTAIPAAAISNPDADLINAMLKRDKEVVISLELGSERRGETTSYNVIAEVKGSTKADEIVLIGAHLDSWDEGTGAIDDGAGVAIVTAAAKHILDLPQKPERTIRVVLYAAEELGLLGGKTYAKEHEAELEKHYIAAESDFGAGPIYQIDWRVADTAHSPVINAMKVAEPLGVAAGNNKASGGPDVSMLPALGVPVASLRQDGSDYFDYHHTPNDTLDKINPEALAQNVAVYAQFAWVMANSKVELRPLPPKE | not failed |
| MTQAFSRVRFIMTQPSHPGNVGSAARAIKTTGFGELVLVAPRFPDMTAQPEAVTLASGALDVLERAAVHDTLEEALAPVTLAFALTARVRDLGPPPCDIREAAGLARRHLDDTEAGVVAIVLGTERAGLTNAQIELCHRICHIPANPQYSSLNVAQALQLAAWELRYALLAGTGQSLLPASSAQQANPGAAPADGAAVQALLAHWEQALVAVGFLDPAHPKKLMPRMKHLLTRSALSRDEVDMLRGVCTAMIAPNRPK | failed |
| MLTTTRRAALISGLATTGLAAFGNRAFAQETGAVGAAVDKFAQDVMAAFPDQPGLGITVVENGQITLAKGYGVKALGGQDRCDESTVFGIASNTKAMTAALLAMLVEEGRVEWDAPVTQYLPDFAMKDPIVTKLLTVRDLLVHRSGLSLGAGDLMIWPAPTHTRAEIVAGLKHLPIGGQFRGGYAYDNVLYVVAGAVIEAVTGQTWEQVIKARIFDPLGMSNTVSSPRLVDQSRRALPHARLGPPVRGLGPQKVLPFDASFDAAGPAGGVNSCPADIGKWMQVQLGRGVSADGKRLWSEAQAREMWKPQTITSSSDGPSNENPARPSMQAYALGWYVQDHRGERLLWHTGGLAGFISYTGLLPGRKSGIMIMTNAEENPVLRSLRFGGPDRLQGRSDFDWIASSKRVQAEADAQTIKDAAAATTPKGGGAPPSLPLEAYAGVYRDPWYGTVTISVTGKGKKKGLYVSFDKTPLLRGKLGPFDGETFITTFEDRTQEDAFFTFDIKDGKAVSALVKAVSPLADFSYDYHDLRLTKEG | failed |
